From patent US20070009989A1, “Synthetic heparanase molecules and uses thereof” (priority 2003, published 2007)

B1: GS4: single chain heparanase, W118-(GS)4-E143 spacer, protein SEQ ID NO:25 (protein)
chain: MLLRSKPALPPPLMLLLLGPLGPLSPGALPRPAQAQDVVDLDFFTQEPLHLVSPSFLSVTIDANLATDPRFLILLGSPKLRTLARGLSPAYLRFGGTKTDFLIFDPKKESTFEERSYWGSGAGSGAEWPYQEQLLLREHYQKKFKNSTYSRSSVDVLYTFANCSGLDLIFGLNALLRTADLQWNSSNAQLLLDYCSSKGYNISWELGNEPNSFLKKADIFINGSQLGEDFIQLHKLLRKSTFKNAKLYGPDVGQPRRKTAKMLKSFLKAGGEVIDSVTWHHYYLNGRTATREDFLNPDVLDIFISSVQKVFQVVESTRPGKKVWLGETSSAYGGGAPLLSDTFAAGFMWLDKLGLSARMGIEVVMRQVFFGAGNYHLVDENFDPLPDYWLSLLFKKLVGTKVLMASVQGSKRRKLRVYLHCTNTDNPRYKEGDLTLYAINLHNVTKYLRLPYPFSNKQVDKYLLRPLGPHGLLSKSVQLNGLTLKMVDDQTLPPLMEKPLRPGSSLGLPAFSYSFFVIRNAKVAACI
modifications: hep GS-A4
B2: GS6: single chain heparanase, subunits linked via (GS)6 spacer, protein SEQ ID NO:26 (protein)
chain: MLLRSKPALPPPLMLLLLGPLGPLSPGALPRPAQAQDVVDLDFFTQEPLHLVSPSFLSVTIDANLATDPRFLILLGSPKLRTLARGLSPAYLRFGGTKTDFLIFDPKKEGSGSGSGSGSGSKKFKNSTYSRSSVDVLYTFANCSGLDLIFGLNALLRTADLQWNSSNAQLLLDYCSSKGYNISWELGNEPNSFLKKADIFINGSQLGEDFIQLHKLLRKSTFKNAKLYGPDVGQPRRKTAKMLKSFLKAGGEVIDSVTWHHYYLNGRTATREDFLNPDVLDIFISSVQKVFQVVESTRPGKKVWLGETSSAYGGGAPLLSDTFAAGFMWLDKLGLSARMGIEVVMRQVFFGAGNYHLVDENFDPLPDYWLSLLFKKLVGTKVLMASVQGSKRRKLRVYLHCTNTDNPRYKEGDLTLYAINLHNVTKYLRLPYPFSNKQVDKYLLRPLGPHGLLSKSVQLNGLTLKMVDDQTLPPLMEKPLRPGSSLGLPAFSYSFFVIRNAKVAACI
modifications: hep GS-A6
B3: 109: single chain heparanase linking the 8 and 50 kDa subunits directly, protein SEQ ID NO:20 (protein)
chain: MLLRSKPALPPPLMLLLLGPLGPLSPGALPRPAQAQDVVDLDFFTQEPLHLVSPSFLSVTIDANLATDPRFLILLGSPKLRTLARGLSPAYLRFGGTKTDFLIFDPKKEKKFKNSTYSRSSVDVLYTFANCSGLDLIFGLNALLRTADLQWNSSNAQLLLDYCSSKGYNISWELGNEPNSFLKKADIFINGSQLGEDFIQLHKLLRKSTFKNAKLYGPDVGQPRRKTAKMLKSFLKAGGEVIDSVTWHHYYLNGRTATREDFLNPDVLDIFISSVQKVFQVVESTRPGKKVWLGETSSAYGGGAPLLSDTFAAGFMWLDKLGLSARMGIEVVMRQVFFGAGNYHLVDENFDPLPDYWLSLLFKKLVGTKVLMASVQGSKRRKLRVYLHCTNTDNPRYKEGDLTLYAINLHNVTKYLRLPYPFSNKQVDKYLLRPLGPHGLLSKSVQLNGLTLKMVDDQTLPPLMEKPLRPGSSLGLPAFSYSFFVIRNAKVAACI
modifications: hep 109
B4: GS3: single chain heparanase, subunits linked via (GS)3 glycine-serine spacer, protein SEQ ID NO:21 (protein)
chain: MLLRSKPALPPPLMLLLLGPLGPLSPGALPRPAQAQDVVDLDFFTQEPLHLVSPSFLSVTIDANLATDPRFLILLGSPKLRTLARGLSPAYLRFGGTKTDFLIFDPKKEGSGSGSKKFKNSTYSRSSVDVLYTFANCSGLDLIFGLNALLRTADLQWNSSNAQLLLDYCSSKGYNISWELGNEPNSFLKKADIFINGSQLGEDFIQLHKLLRKSTFKNAKLYGPDVGQPRRKTAKMLKSFLKAGGEVIDSVTWHHYYLNGRTATREDFLNPDVLDIFISSVQKVFQVVESTRPGKKVWLGETSSAYGGGAPLLSDTFAAGFMWLDKLGLSARMGIEVVMRQVFFGAGNYHLVDENFDPLPDYWLSLLFKKLVGTKVLMASVQGSKRRKLRVYLHCTNTDNPRYKEGDLTLYAINLHNVTKYLRLPYPFSNKQVDKYLLRPLGPHGLLSKSVQLNGLTLKMVDDQTLPPLMEKPLRPGSSLGLPAFSYSFFVIRNAKVAACI
modifications: hep GS3
B5: hyaluro: single chain heparanase with grafted loop region from hyaluronidase, protein SEQ ID NO:27 (protein)
chain: MLLRSKPALPPPLMLLLLGPLGPLSPGALPRPAQAQDVVDLDFFTQEPLHLVSPSFLSVTIDANLATDPRFLILLGSPKLRTLARGLSPAYLRFGGTKTDFLIFDPKKESTFEERSYWAFKDKTPEWPYQEQLLLREHYQKKFKNSTYSRSSVDVLYTFANCSGLDLIFGLNALLRTADLQWNSSNAQLLLDYCSSKGYNISWELGNEPNSFLKKADIFINGSQLGEDFIQLHKLLRKSTFKNAKLYGPDVGQPRRKTAKMLKSFLKAGGEVIDSVTWHHYYLNGRTATREDFLNPDVLDIFISSVQKVFQVVESTRPGKKVWLGETSSAYGGGAPLLSDTFAAGFMWLDKLGLSARMGIEVVMRQVFFGAGNYHLVDENFDPLPDYWLSLLFKKLVGTKVLMASVQGSKRRKLRVYLHCTNTDNPRYKEGDLTLYAINLHNVTKYLRLPYPFSNKQVDKYLLRPLGPHGLLSKSVQLNGLTLKMVDDQTLPPLMEKPLRPGSSLGLPAFSYSFFVIRNAKVAACI
modifications: hep Hya1
B6: 106: single chain heparanase linking the 8 and 50 kDa subunits directly, protein SEQ ID NO:17 (protein)
chain: MLLRSKPALPPPLMLLLLGPLGPLSPGALPRPAQAQDVVDLDFFTQEPLHLVSPSFLSVTIDANLATDPRFLILLGSPKLRTLARGLSPAYLRFGGTKTDFLIFDPKKFKNSTYSRSSVDVLYTFANCSGLDLIFGLNALLRTADLQWNSSNAQLLLDYCSSKGYNISWELGNEPNSFLKKADIFINGSQLGEDFIQLHKLLRKSTFKNAKLYGPDVGQPRRKTAKMLKSFLKAGGEVIDSVTWHHYYLNGRTATREDFLNPDVLDIFISSVQKVFQVVESTRPGKKVWLGETSSAYGGGAPLLSDTFAAGFMWLDKLGLSARMGIEVVMRQVFFGAGNYHLVDENFDPLPDYWLSLLFKKLVGTKVLMASVQGSKRRKLRVYLHCTNTDNPRYKEGDLTLYAINLHNVTKYLRLPYPFSNKQVDKYLLRPLGPHGLLSKSVQLNGLTLKMVDDQTLPPLMEKPLRPGSSLGLPAFSYSFFVIRNAKVAACI
modifications: hep 106

How the values were obtained:
[1] = Heparanase enzymatic activity of constructs transiently expressed in COS-7 cells (radiometric or fluorimetric assay); assay type: biochemical; details: for enzymatic activity: extracted by heparin affinity chromatography; for stability of the construct (conclusion from expression level): expression barely detectable by Western blot
Description: Cells were grown in Dulbecco's MEM (Gibco BRL, Gaithersburg, Md.). All constructs were cloned into the eukaryotic expression plasmid pcDNA3 (Invitrogen). A vector encoding the reporter gene β-lactamase (BLA) was co-transfected in order to check transfection efficiency of each construct. […] Transient transfection of COS7 cells was obtained using the fuGENE 6 Transfection Reagent (Roche, Basel, Switzerland) according to manufacturer's instructions. 24 hours after transfection, efficiency was assessed by fluorimetric detection of BLA-positive cells. 96 hours after transfection, cells were harvested and resuspended in lysis buffer (50 mM Tris-HCl pH 7.5, 150 mM NaCl, 0.5% Triton) containing Complete protease inhibitor cocktail (Roche). The lysis was carried out on ice for 30 minutes. After centrifugation at 14000 rpm for 30 minutes, the heparanase containing supernatants were recovered and partially purified as outlined below.
Heparanase constructs were expressed in COS-7 cells, which are devoid of endogenous heparanse activity, by transient transfection. Heparanase was extracted from cell lysates by heparin affinity chromatography and quantified on Western blots. In parallel, heparanase enzymatic activity was determined with either the radiometric or fluorimetric assay (FIG. 5). From Western blot analysis, we concluded that wt heparanase as well as the single chain constructs GS3 and hyaluro are efficiently expressed and processed, whereas constructs 106 and GS4 are expressed but not processed. Expression levels of constructs 109 and GS6 were extremely low and barely detectable by Western blot analysis. […] Since GS3 and hyaluro are active but are processed despite the changes that were introduced in the cleavage sites we can not draw any conclusion with respect to the intrinsic activity of the precursors. We therefore proceeded with the expression in cells that are devoid of the enzyme(s) responsible for heparanase processing.
(§1) Cell lysates from COS7 or Sf9 insect cells were passed through 500 μl Heparin Sepharose CL-6B (Amersham, Piscataway, N.J.) by gravity. The column was washed with 2 ml of lysis buffer, then with 2 ml of 50 mM Tris-HCl pH 7.5, 500 mM NaCl, and heparanase was eluted with 2 ml of 50 mM Tris-HCl pH 7.5, 1 M NaCl and concentrated about 5 fold with a Biomax-30K centrifugal concentrator (Millipore, Bedford, Mass.). 10% glycerol was added and the protein was stored in aliquots at −80° C. Protein concentration was determined using the BIO-RAD Protein Assay.
(§2) This assay is based on the degradation of FITC-HS monitored by HPLC size exclusion chromatography. 8 μl of purified heparanase was incubated with 5 μL of FITC-HS in a 50 μl of 50 mM MES pH 6, 10% glycerol (heparanase activity buffer, HAB). The reaction mixture was incubated at room temperature for a defined period and the reaction was stopped by the addition of 50 μg of heparin. The mixture was then filtered using Ultrafree-MC centrifugal filter Devices (Millipore). 20 μl were injected on a Superdex 75™ (Pharmacia Biotech) column equilibrated in buffer 50 mM Hepes pH 7.5 150 mM Na2SO4 and connected to a Merck-Hitachi HPLC system. Fluorescent heparan sulfate degradation products were detected by an L-7485 fluorescence detector. Heparanase activity was assessed by monitoring the increase in lower molecular weight heparan sulfate species compared with the intact FITC-HS and quantified by peak area integration.
This assay is based on the degradation of tritiated heparan sulfate immobilized on microplate. Each well of the Reacti-Bind Streptavidin High Binding Capacity Coated Plates was pre-treated according to manufacturer's instructions. Initially, different amounts of each fraction of tritiated, biotinylated heparan sulfate obtained after PD-10 desalting column were added to each well (in duplicate) in PBS to a final volume of 100 μl. […]

[2] = Heparanase enzymatic activity of constructs expressed in Sf9 insect cells (fluorimetric assay); assay type: biochemical; details: for pH and ionic strength dependence of the enzymatic activity: compared with wild type enzyme from COS-7 cells or HCT-116 cells; for enzymatic activity of the unprocessed purified protein: expressed in Sf9 cells, compared with correctly processed wild type enzyme from COS-7 cells
Description: Recombinant baculoviruses containing the heparanase constructs were generated using the Bac to Bac expression system (Invitrogen). Recombinant baculoviruses were used to infect Sf9 insect cells (50×10^6 cells per T-175 flask) grown in Grace's insect medium with 10% FBS. Cells were collected 48 h after infection, and centrifuged at 500 g for 5 minutes. Cell lysates were prepared as above, except the lysis buffer contained 500 mM NaCl instead of the 150 mM used for COS7, which improved protein quantity in the soluble fraction.
The proteins were expressed in Sf9 cells and purified by heparin affinity chromatography.
as §1, §2

Row | Molecule | enzymatic activity [1] | stability of the construct (conclusion from expression level) [1] | pH and ionic strength dependence of the enzymatic activity [2] | enzymatic activity of the unprocessed purified protein [2]
1 | B1 | inactive | – | – | –
2 | B2 | – | probably unstable | – | –
3 | B3 | – | probably unstable | – | –
4 | B4 | showed enzymatic activity | – | undistinguishable from the wild type recombinant enzyme | highly active
5 | B5 | showed enzymatic activity | – | undistinguishable from the wild type recombinant enzyme | highly active
6 | B6 | inactive | – | – | –
